Measured values published in patent US20200223889A1 (Novo Nordisk, published 2020).
Positions of bridges follow the written chain, without caps; N, C: chain ends. Non-standard residues stand in square brackets, D forms with d. Pro(trans-4-guanidino) = N=C(N)N[C@H]1CN[C@H](C(=O)O)C1; Pro(cis-4-guanidino) = NC(N)=N[C@@H]1CN[C@H](C(=O)O)C1; Lys(Me2) = CN(C)CCCC[C@H](N)C(=O)O; Hyp = O=C(O)[C@@H]1C[C@@H](O)CN1; GABA = NCCCC(=O)O; Sar = CNCC(=O)O

B1: Chem. 26 (peptide)
peptide: cyclo(C[Hyp][dF]RWC[Hyp][dF]RW)
modifications: bridge 1-6 via methylene bridge (S-CH2-S)
notes: also called c[c[Cys-Hyp-D-Phe-Arg-Trp-Cys]-Hyp-D-Phe-Arg-Trp]; Note: methylene bridge
B2: Chem. 18 (peptide)
peptide: cyclo(CAH[dF][Lys(Me2)]WCAH[dF][Lys(Me2)]W)
modifications: disulfide 1-7
SMILES: C[C@@H]1NC(=O)[C@@H]2CSSC[C@H](NC(=O)[C@H](Cc3c[nH]c4ccccc34)NC(=O)[C@H](CCCCN(C)C)NC(=O)[C@@H](Cc3ccccc3)NC(=O)[C@H](Cc3c[nH]cn3)NC1=O)C(=O)N[C@@H](C)C(=O)N[C@@H](Cc1c[nH]cn1)C(=O)N[C@H](Cc1ccccc1)C(=O)N[C@@H](CCCCN(C)C)C(=O)N[C@@H](Cc1c[nH]c3ccccc13)C(=O)N2
notes: also called c[c[Cys-Ala-His-D-Phe-Lys(Me)2-Trp-Cys]-Ala-His-D-Phe-Lys(Me)2-Trp]
B3: Chem. 23 (peptide)
peptide: cyclo(CA[Hyp][dF]RWCA[Hyp][dF]RW)
modifications: bridge 1-7 via methylene bridge (S-CH2-S)
notes: also called c[c[Cys-Ala-Hyp-D-Phe-Arg-Trp-Cys]-Ala-Hyp-D-Phe-Arg-Trp]; Note: methylene bridge
B4: Chem. 28 (peptide)
peptide: cyclo(CAH[dF][Pro(trans-4-guanidino)]WCAH[dF][Pro(trans-4-guanidino)]W)
modifications: disulfide 1-7
SMILES: C[C@@H]1NC(=O)[C@@H]2CSSC[C@H](NC(=O)[C@H](Cc3c[nH]c4ccccc34)NC(=O)[C@@H]3C[C@@H](NC(=N)N)CN3C(=O)[C@@H](Cc3ccccc3)NC(=O)[C@H](Cc3c[nH]cn3)NC1=O)C(=O)N[C@@H](C)C(=O)N[C@@H](Cc1c[nH]cn1)C(=O)N[C@H](Cc1ccccc1)C(=O)N1C[C@H](NC(=N)N)C[C@H]1C(=O)N[C@@H](Cc1c[nH]c3ccccc13)C(=O)N2
notes: also called c[c[Cys-Ala-His-D-Phe-4trans-GuaPro-Trp-Cys]-Ala-His-D-Phe-4trans-GuaPro-Trp]
B5: Chem. 20 (peptide)
peptide: CXHFRWCXHFRW
modifications: ACBC 2, 8; D-Phe 4, 10; disulphide Cys1-Cys7; head-to-tail amide Cys1-Trp12
notes: also called c[c[Cys-ACBC-His-D-Phe-Arg-Trp-Cys]-ACBC-His-D-Phe-Arg-Trp]
B6: Chem. 27 (peptide)
peptide: cyclo(C[Hyp][dF]RWC[Hyp][dF]RW)
modifications: disulfide 1-6
SMILES: N=C(N)NCCC[C@@H]1NC(=O)[C@@H](Cc2ccccc2)NC(=O)[C@@H]2C[C@@H](O)CN2C(=O)[C@@H]2CSSC[C@H](NC(=O)[C@H](Cc3c[nH]c4ccccc34)NC1=O)C(=O)N1C[C@H](O)C[C@H]1C(=O)N[C@H](Cc1ccccc1)C(=O)N[C@@H](CCCNC(=N)N)C(=O)N[C@@H](Cc1c[nH]c3ccccc13)C(=O)N2
notes: also called c[c[Cys-Hyp-D-Phe-Arg-Trp-Cys]-Hyp-D-Phe-Arg-Trp]
B7: Chem. 30 (peptide)
peptide: cyclo(CPH[dF]RWCPH[dF]RW)
modifications: disulfide 1-7
SMILES: N=C(N)NCCC[C@@H]1NC(=O)[C@@H](Cc2ccccc2)NC(=O)[C@H](Cc2c[nH]cn2)NC(=O)[C@@H]2CCCN2C(=O)[C@@H]2CSSC[C@H](NC(=O)[C@H](Cc3c[nH]c4ccccc34)NC1=O)C(=O)N1CCC[C@H]1C(=O)N[C@@H](Cc1c[nH]cn1)C(=O)N[C@H](Cc1ccccc1)C(=O)N[C@@H](CCCNC(=N)N)C(=O)N[C@@H](Cc1c[nH]c3ccccc13)C(=O)N2
notes: also called c[c[Cys-Pro-His-D-Phe-Arg-Trp-Cys]-Pro-His-D-Phe-Arg-Trp]
B8: Chem. 35 (peptide)
peptide: cyclo(C[GABA]H[dF]RWC[GABA]H[dF]RW)
modifications: disulfide 1-7
SMILES: N=C(N)NCCC[C@@H]1NC(=O)[C@@H](Cc2ccccc2)NC(=O)[C@H](Cc2c[nH]cn2)NC(=O)CCCNC(=O)[C@@H]2CSSC[C@H](NC(=O)[C@H](Cc3c[nH]c4ccccc34)NC1=O)C(=O)NCCCC(=O)N[C@@H](Cc1c[nH]cn1)C(=O)N[C@H](Cc1ccccc1)C(=O)N[C@@H](CCCNC(=N)N)C(=O)N[C@@H](Cc1c[nH]c3ccccc13)C(=O)N2
notes: also called c[c[Cys-GABA-His-D-Phe-Arg-Trp-Cys]-GABA-His-D-Phe-Arg-Trp]
B9: Chem. 24 (peptide)
peptide: cyclo(CAH[dF]HWCAH[dF]HW)
modifications: disulfide 1-7
SMILES: C[C@@H]1NC(=O)[C@@H]2CSSC[C@H](NC(=O)[C@H](Cc3c[nH]c4ccccc34)NC(=O)[C@H](Cc3c[nH]cn3)NC(=O)[C@@H](Cc3ccccc3)NC(=O)[C@H](Cc3c[nH]cn3)NC1=O)C(=O)N[C@@H](C)C(=O)N[C@@H](Cc1c[nH]cn1)C(=O)N[C@H](Cc1ccccc1)C(=O)N[C@@H](Cc1c[nH]cn1)C(=O)N[C@@H](Cc1c[nH]c3ccccc13)C(=O)N2
notes: also called c[c[Cys-Ala-His-D-Phe-His-Trp-Cys]-Ala-His-D-Phe-His-Trp]
B10: Chem. 32 (peptide)
peptide: cyclo(C[Hyp]H[dF]RWC[Hyp]H[dF]RW)
modifications: disulfide 1-7
SMILES: N=C(N)NCCC[C@@H]1NC(=O)[C@@H](Cc2ccccc2)NC(=O)[C@H](Cc2c[nH]cn2)NC(=O)[C@@H]2C[C@@H](O)CN2C(=O)[C@@H]2CSSC[C@H](NC(=O)[C@H](Cc3c[nH]c4ccccc34)NC1=O)C(=O)N1C[C@H](O)C[C@H]1C(=O)N[C@@H](Cc1c[nH]cn1)C(=O)N[C@H](Cc1ccccc1)C(=O)N[C@@H](CCCNC(=N)N)C(=O)N[C@@H](Cc1c[nH]c3ccccc13)C(=O)N2
notes: also called c[c[Cys-Hyp-His-D-Phe-Arg-Trp-Cys]-Hyp-His-D-Phe-Arg-Trp]
B11: Chem. 22 (peptide)
peptide: CAHFXWCAHFXW
modifications: D-Phe 4, 10; HArg 5, 11; disulphide Cys1-Cys7; head-to-tail amide Cys1-Trp12
notes: also called c[c[Cys-Ala-His-D-Phe-HArg-Trp-Cys]-Ala-His-D-Phe-HArg-Trp]
B12: Chem. 37 (peptide)
peptide: CAHFXWCAHFXW
modifications: D-Phe 4, 10; N-MeArg 5, 11; disulphide Cys1-Cys7; head-to-tail amide Cys1-Trp12
notes: also called c[c[Cys-Ala-His-D-Phe-N-MeArg-Trp-Cys]-Ala-His-D-Phe-N-MeArg-Trp]
B13: Chem. 4 (peptide)
peptide: cyclo(CH[dF]RWGCH[dF]RWG)
modifications: disulfide 1-7
SMILES: N=C(N)NCCC[C@@H]1NC(=O)[C@@H](Cc2ccccc2)NC(=O)[C@H](Cc2c[nH]cn2)NC(=O)[C@@H]2CSSC[C@H](NC(=O)CNC(=O)[C@H](Cc3c[nH]c4ccccc34)NC1=O)C(=O)N[C@@H](Cc1c[nH]cn1)C(=O)N[C@H](Cc1ccccc1)C(=O)N[C@@H](CCCNC(=N)N)C(=O)N[C@@H](Cc1c[nH]c3ccccc13)C(=O)NCC(=O)N2
notes: also called c[c[Cys-His-D-Phe-Arg-Trp-Gly-Cys]-His-D-Phe-Arg-Trp-Gly]
B14: Chem. 31 (peptide)
peptide: cyclo(C[Sar]H[dF]RWC[Sar]H[dF]RW)
modifications: disulfide 1-7
SMILES: CN1CC(=O)N[C@@H](Cc2c[nH]cn2)C(=O)N[C@H](Cc2ccccc2)C(=O)N[C@@H](CCCNC(=N)N)C(=O)N[C@@H](Cc2c[nH]c3ccccc23)C(=O)N[C@H]2CSSC[C@H](NC(=O)[C@H](Cc3c[nH]c4ccccc34)NC(=O)[C@H](CCCNC(=N)N)NC(=O)[C@@H](Cc3ccccc3)NC(=O)[C@H](Cc3c[nH]cn3)NC(=O)CN(C)C2=O)C1=O
notes: also called c[c[Cys-Sar-His-D-Phe-Arg-Trp-Cys]-Sar-His-D-Phe-Arg-Trp]
B15: Chem. 25 (peptide)
peptide: CXHFRWCXHFRW
modifications: βAla 2, 8; D-Phe 4, 10; disulphide Cys1-Cys7; head-to-tail amide Cys1-Trp12
notes: also called c[c[Cys-βAla-His-D-Phe-Arg-Trp-Cys]-βAla-His-D-Phe-Arg-Trp]
B16: Chem. 29 (peptide)
peptide: cyclo(CAH[dF][Pro(cis-4-guanidino)]WCAH[dF][Pro(cis-4-guanidino)]W)
modifications: disulfide 1-7
SMILES: C[C@@H]1NC(=O)[C@@H]2CSSC[C@H](NC(=O)[C@H](Cc3c[nH]c4ccccc34)NC(=O)[C@@H]3C[C@H](N=C(N)N)CN3C(=O)[C@@H](Cc3ccccc3)NC(=O)[C@H](Cc3c[nH]cn3)NC1=O)C(=O)N[C@@H](C)C(=O)N[C@@H](Cc1c[nH]cn1)C(=O)N[C@H](Cc1ccccc1)C(=O)N1C[C@@H](N=C(N)N)C[C@H]1C(=O)N[C@@H](Cc1c[nH]c3ccccc13)C(=O)N2
notes: also called c[c[Cys-Ala-His-D-Phe-4cis-GuaPro-Trp-Cys]-Ala-His-D-Phe-4cis-GuaPro-Trp]
B17: Chem. 19 (peptide)
peptide: CAHFXWCAHFXW
modifications: D-Phe 4, 10; Cit 5, 11; disulphide Cys1-Cys7; head-to-tail amide Cys1-Trp12
notes: also called c[c[Cys-Ala-His-D-Phe-Cit-Trp-Cys]-Ala-His-D-Phe-Cit-Trp]
B18: Chem. 36 (peptide)
peptide: cyclo(CVH[dF]RWCVH[dF]RW)
modifications: disulfide 1-7
SMILES: CC(C)[C@@H]1NC(=O)[C@@H]2CSSC[C@H](NC(=O)[C@H](Cc3c[nH]c4ccccc34)NC(=O)[C@H](CCCNC(=N)N)NC(=O)[C@@H](Cc3ccccc3)NC(=O)[C@H](Cc3c[nH]cn3)NC1=O)C(=O)N[C@@H](C(C)C)C(=O)N[C@@H](Cc1c[nH]cn1)C(=O)N[C@H](Cc1ccccc1)C(=O)N[C@@H](CCCNC(=N)N)C(=O)N[C@@H](Cc1c[nH]c3ccccc13)C(=O)N2
notes: also called c[c[Cys-Val-His-D-Phe-Arg-Trp-Cys]-Val-His-D-Phe-Arg-Trp]
B19: Chem. 3 (peptide)
peptide: XAHFRWXAHFRW
modifications: HCys 1, 7; D-Phe 4, 10; disulphide HCys1-HCys7; head-to-tail amide HCys1-Trp12
notes: also called c[c[HCys-Ala-His-D-Phe-Arg-Trp-HCys]-Ala-His-D-Phe-Arg-Trp]

Assays:
[1] = biological target: T1, human melanocortin 4 receptor (human, UniProt P32245 1-332); assay: competition with 125-NDP-α-MSH, BHK human MC4R membranes
T1 construct: whole, on cells; cAMP assay on whole BHK cells; also called MC4R; human MC4 receptor
Procedure, shortened: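 Competition binding used membranes from BHK cells stably expressing human MC4R with ¹²⁵I-NDP-α-MSH (apx. […] final), compound at 1 μM–0.001 nM. Incubation was 2 h at 25 °C in HEPES pH 7.0 buffer with CaCl₂, MgSO₄, EGTA, Tween 20 and 0.1% HSA or ovalbumin. Filter-bound radioactivity was fitted by non-linear regression.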

[2] = biological target: human melanocortin 1 receptor (human, UniProt Q01726 1-317); assay: cell-based or functional assay
[3] = biological target: T1, human melanocortin 4 receptor; assay: cell-based or functional assay

human melanocortin 1 receptor, sequence (Q01726 whole entry): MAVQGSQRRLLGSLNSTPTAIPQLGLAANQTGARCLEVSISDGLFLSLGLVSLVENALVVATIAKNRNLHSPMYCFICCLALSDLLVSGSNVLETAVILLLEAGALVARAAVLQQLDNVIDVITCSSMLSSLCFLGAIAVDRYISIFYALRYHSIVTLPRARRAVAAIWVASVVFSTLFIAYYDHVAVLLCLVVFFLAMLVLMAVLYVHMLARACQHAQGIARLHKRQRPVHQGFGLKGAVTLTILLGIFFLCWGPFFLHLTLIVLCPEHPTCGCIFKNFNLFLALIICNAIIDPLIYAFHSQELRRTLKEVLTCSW
T1 sequence (P32245 whole entry): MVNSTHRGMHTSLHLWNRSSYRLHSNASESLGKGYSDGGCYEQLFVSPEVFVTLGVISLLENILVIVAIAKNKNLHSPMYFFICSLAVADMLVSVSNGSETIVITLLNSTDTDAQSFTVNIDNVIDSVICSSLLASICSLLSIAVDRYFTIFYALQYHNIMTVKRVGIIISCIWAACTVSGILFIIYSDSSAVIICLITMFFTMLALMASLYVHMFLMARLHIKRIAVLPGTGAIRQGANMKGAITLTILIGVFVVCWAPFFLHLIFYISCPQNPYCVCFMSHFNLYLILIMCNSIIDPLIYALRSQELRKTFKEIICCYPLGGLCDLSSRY

Row | Binder | Ki [1] [nM] | MC1R cAMP EC50 [2] [nM] | MC4R cAMP EC50 [3] [nM]
1 | B1 | 0.44 | 17.2 | 0.18
2 | B2 | 0.38 | 4.22 | 0.12
3 | B3 | 13.6 | > 10 | 3.26
4 | B4 | 892 | > 100 | 518
5 | B5 | 0.15 | 4.97 | 0.04
6 | B6 | 1.01 | 50.9 | 0.24
7 | B7 | 0.09 | 0.61 | 0.03
8 | B8 | 0.03 | 0.28 | 0.01
9 | B9 | 0.55 | 178 | 0.49
10 | B10 | 0.37 | 1.98 | 0.12
11 | B11 | 0.06 | 0.22 | 0.02
12 | B12 | 3.31 | 13.1 | 1.57
13 | B13 | 0.69 | 0.67 | 0.09
14 | B14 | 1.67 | 7.78 | 0.29
15 | B15 | 0.04 | 0.34 | 0.02
16 | B16 | 1210 | > 100 | 1020
17 | B17 | 1.49 | > 1 | 0.13
18 | B18 | 0.12 | 1.05 | 0.04
19 | B19 | 0.42 | 7.29 | 0.26
